# IntAct's records for PubMed 16732284
# B1: Carboxypeptidase Y-deficient protein 8 (Saccharomyces cerevisiae), P40335 (parent)
# chain: MSIFFKPPIDIEILFDNEESRKHVDIATRSSNSSYKSMKESLPVYEDGESLGGIVTLRVRDSKKVDHLGIKVSVIGSIDMLKSHGSGNSSSKKVTSSTSSSSSNGSVDVRKNSVDQFLCQSYDLCPAGELQHSQSFPFLFRDLSKRYESYKGKNVDVAYYVKVTVMRKSTDISKIKRFWVYLYNSVTTAPNTLSANETKATTNDIAGGNYAADNASDNTQTKSTQGEAADVNQVLPISHSNNEPKPVRLDIGIENCLHIEFEYAKSQYSLKEVIVGRIYFLLTRLRIKHMELSLITRESSGLQTSNVMTDSTAIRYEIMDGSSVKGETIPIRLFLSGYDLTPNMSCNYFNVKNYLSLVIIDEDGRRYFKQSEITLYRTR
# Variants of: B1
# Details: with vps35_human VPS35, Q96QK1
row,effect of a mutation on the interaction,Variant
1,disrupting interaction,MSIFFKPPIDIEILFDNEESRKHVDIATRSSNSSYKSMKESLPVYEDGESLGGIVTLRVRDSKKVDHLGIKVSVIGSIDMLKSHGSGNSSSKKVTSSTSSSSSNGSVDVRKNSVDQFLCQSYDLCPAGELQHSQSFPFLFRDLSKRYESYKGKNVDVAYYVKVTVMRKSTDISKIKRFWVYLYNSVTTAPNTLSANETKATTNDIAGGNYAADNASDNTQTKSTQGEAADVNQVLPISHSNNEPKPVRLDIGIENCLHIEFEYAKSQYSLKEVIVGRIYFLLTRLRIKHMELSLITRESSGLQTSNVMTDSTAIRYEDDDGSSVKGETIPIRLFLSGYDLTPNMSCNYFNVKNYLSLVIIDEDGRRYFKQSEITLYRTR [I318D;M319D]
